Results as given in US20240166692A1.
Numbering of substitutions follows the chain as printed. One block for each binder: values may come before it.

Legend:
[1] = target: C3b (component obtained after hydrolysis of complement component 3, C3) (UniProt P01024); test: ELISA screen of optimized Nf1 variants
[2] = target: C3b (component obtained after hydrolysis of complement component 3, C3) (UniProt P01024); test: BLI (Octet RED96), GFP tagged Nanofitin captured on anti-GFP Nanofitin biosensor, C3b in solution, 1:1 fit
[3] = target: C3b (component obtained after hydrolysis of complement component 3, C3) (UniProt P01024); test: biolayer interferometry
[4] = target: C3b (component obtained after hydrolysis of complement component 3, C3) (UniProt P01024); test: biolayer interferometry; B10 by full chemical synthesis
[5] = target: C3b (component obtained after hydrolysis of complement component 3, C3) (UniProt P01024); test: biolayer interferometry; B10 recombinant from E. coli; untagged B10, recombinant from E. coli

OD 450 nm [1]: > 4 OD 450 nm
Kd [2]: 7.31 nM
koff [2]: 0.000433 s⁻¹
kon [2]: 59200 M⁻¹ s⁻¹
B1: B10 (SEQ ID NO: 25), GFP tagged anti-C3 Nanofitin (designed binder, not shown: large carriers)
chain: MVKVKFDATGEEKEVDTSKISAVYRTGKDVLFSYDDNGKIGWGYVSEKDAPKELLDLLARAERE

Kd [3]: 7.3 nM
B2: B10 Nanofitin with N-terminal peptide (10-mers) tag and C-terminal 30 kDa protein (designed binder, not shown: large carriers; small tags and cut ends)
chain: B1 chain

Kd [3]: 6.7 nM
B3: B10 Nanofitin with N-terminal 48 kDa protein (designed binder, not shown: small tags and cut ends)
chain: B1 chain

Kd [3]: 11.5 nM
B4: B10 Nanofitin with N-terminal peptide (10-mers) tag and C-terminal Nanofitin (designed binder, not shown: small tags and cut ends)
chain: B1 chain

Kd [3]: 2.5 nM
B5: B10 Nanofitin with N-terminal peptide (10-mers) tag and C-terminal peptide (15-mers) tag (designed binder, not shown: small tags and cut ends)
chain: B1 chain

OD 450 nm [1]: > 4 OD 450 nm
Kd [2]: 2.89 nM
koff [2]: 0.000188 s⁻¹
kon [2]: 65200 M⁻¹ s⁻¹
B6: H03 (SEQ ID NO: 26), GFP tagged anti-C3 Nanofitin (designed binder, not shown: large carriers)
chain: B1 chain with D7A, S21A, A22N, T26V

Kd [3]: 8.2 nM
B7: B10 Nanofitin with N-terminal peptide (10-mers) tag (designed binder, not shown: small tags and cut ends)
chain: B1 chain

Kd [4]: 18 nM
Kd [5]: 18.5 nM
B8: B10 Nanofitin without N- or C-terminal tag (designed binder)
chain: B1 chain
